From the DeepSol protein solubility set

assay: soluble on expression in E. coli; label from the status in PepcDB or PDB records

Row | Sequence | soluble on expression in E. coli
1 | MLLLQFSNMVEPTGPAIVEDERTKALNSYRRKLAECRDIEQKLKDLRKKESEMTKQFDKSENDIKSLQSVGQIVGEVLKQLSEEKFIVKATNGPRYVVGCRRSINKEELKQGTRVSLDMTTLTIMRQLPREVDPLVYKMSHEDPGNISYSDVGGLAEQIRELREVVELPLINPELFKRVGITPPKGCLLFGPPGTGKTLLARAVASQLDCNFLKVVSSAIVDKYIGESARMIREMFNYARDHQPCIVFMDEIDAIGGRRFSEGTSADREIQRTLMELLNQLDGFDSLGKVKVIMATNRPDTLDPALLRPGRLDRKIEIGLPNEQSRLEILKIHSNKITKHGEIDFEAVVKLSDGFSAADLRNVCTEAGMFAIRAEREFVIDEDFMKAVRKVGDAKRLETKLDYKPV | not soluble
2 | MGSDKIHHHHHHADDSVKIGFITDMSGLYADIDGQGGLEAIRMAVADFGGKVNGKPITVVYADHQNKADIAASRAREWFDRDGVDMLIGGTNSATGLSMNTVAGEKKKVYISIGAGADTLTNEQCTPYTVHYAYDTTALAKGTGSAVTKQGGKTWYFLTADYAFGKALEKNTADVVKANGGQVLGAVRHPLSASDFSSFLLQAQASKAQILGLANAGGDTINSIKAAKEFGITKTMKLAALLVFIDDIHSLGLETTQGLVLTDSWYWNKDATTRKWAERYFDKMKKMPSSLQAADYSATMTYLNAVKAVGSTDSDKVMAQLKKTKIDDFYAKGYIRQDGSMIHDMYLMQVKTPAESREPWDYYKITATIPGEQAFTTKAETRCALWK | not soluble
3 | MGSDKIHHHHHHMHVEDYMNETPACLLAMLTQTREDLWQAAKALTERGVTRIILTGSGTSYHGALTARSFMQQWCGLPVDVYWPFLLDDSALTLSDKALVIGISQGGGSLSTLAAMERARAAGHLTASMAGEAPAVIDRAADLVLTVPCGEERAGAKTKGYHCTILNLMLLGLAVASRQRRLSDEERKALLIRMDTTFNHLPTLIEASQAWVLNHARPLIDSADIRLTGPARLFGTVQEGALKMLETLRCPVAGYEFEEFIHGIYNAFDERSTLIMLDPFPDERQDRLAEILGGWTQHIYRIGPQVENNGKNMPFAFINDPDFAVFEYIIPLQMVCARLPPVKGIDPAIPKDPQFHQKMKSKQLN | not soluble
4 | MDFDRIAMRTTDPAWQKGSAPATPSPVEADAKVTMRLRYTKTGAMRYLSHLEMIGLFTRAVGRARLPIRFSQGFHPHPKFSFATALSVGVESWAEYLDMELIPSLTPGEVRDRLNAALPEGMRIVEAVVIPPGTPSLSVLMDKVRYRIILLEEAARDLAARAEAFLARDSFPLRRAKKGRIQEYDLEHHHHHH | not soluble
5 | MKVFNRPILFDIVSRGSPDGLEGLLSFLLTHKKRLTDEEFREPSTGKTCLPKALLNLSAGRNDTIPILLDIAEKTGNMREFINSPFRDVYYRGQTALHIAIERRCKHYVELLVEKGADVHAQARGRFFQPKDEGGYFYFGELPLSLAACTNQPHIVHYLTENGHKQADLRRQDSRGNTVLHALVAIADNTRENTKFVTKMYDLLLIKCAKLFPDTNLEALLNNDGLSPLMMAAKTGKIGIFQHIIRREIADAAAHHHHHH | soluble
6 | GMEYQLQQLASLTLVGIKETYENGRQAQQHIAGFWQRCYQEGVIADLQLKNNGDLAGILGLCIPELDGKMSYMIAVTGDNSADIAKYDVITLASSKYMVFEAQGAVPKAVQQKMEEVHHYIHQYQANTVKSAPFFELYQDGDTTSEKYITEIWMPVKG | soluble
7 | MLKVKKEVLEKMIKQAERDYPYETCGLLIGKSEGGIRIAYEAFETPNANPDRKHDRYEIAPKDYMRAEDYAISKGMEIVGVYHSHPDHPDRPSQFDLQRAFPDLSYIIFSVQKGKVASYRSWELKGDKFEEEEVEVFE | not soluble
8 | MAHHHHHHMPPPLRSKAESVQREEVCQMVEPKRSMSVRDTLYGQLEFPPVIRILTNSPVVQRLRDLKQLGNSFYVYPGATHSRFEHSLGVCYLGMELYRSIVDGHREEHRDFGVPEIANLTREAAQKDMHCIGIAGLCHDLGHGPLSHLFESFVRSSARPEEVQLRKWSHEQASIMLLRKMWLENETELAELGFTESDLRYVELLINGLAPGKAWPDNVGRPKWARFTTEIIANKRSGLDVDKIDYIQRDSVACLGTPTFVSMSRLFQGARVVVGDNDETSIGYPDKLDGVIEEIFLARSHLHRIVYQHRVTKVIDLMTLDALRAAGDVFEVSNGKDGVMPLRSCVLHPDFYVHASDWIVLAILHGSNRTMAESWGSGASAEHRREKLAEACRILQRIHSRHLYTTIGSYRHSEQTLINAGRLNSVEGSSQEVKREVMIHELLSDIEVTNLDLSVKLREWSRQHNGMTAMEILQAEITQTAGDMDKKHNPVSATYFFNPRQSTHCRVEPHFSCNVTTTLFVKTGPVSSLVVVCRMPLTPQEKESLRVSFTSVADRLGKTDASSFSCTPMSQRGRAAESSQQAASVARDESAATPNHSLAGGERLTSSVSGGYPAAKRLRLDLDTQRSRRDDFDVDQSSEGVLQNDATTSSLELVTAAGYGQVGEKGQDDDDGEETDILSFS | not soluble
9 | SNAMNVNQIVRIIPTLKANNRKLNETFYIETLGMKALLEESAFLSLGDQTGLEKLVLEEAPSMRTRKVEGRKKLARLIVKVENPLEIEGILSKTDSIHRLYKGQNGYAFEIFSPEDDLILIHAEDDIASLVEVGEKPEFQTDLASISLSKFEISMELHLPTDIESFLESSEIGASLDFIPAQGQDLTVDNTVTWDLSMLKFLVNELDIASLRQKFESTEYFIPKSEKFFLGKDRNNVELWFEEV | soluble
10 | MGSDKIHHHHHHMLSKFWRPQAPQMIGVDIGSYEIKAILLGKTADGYKIQAHSCVPIKKGAVVDHDIRDSAAVIEALKQVKRGLPKSAKFAAVSVSGSAVMTKVIYMDSSLTEEEMEAQIEIEADNLIPYSLDEVSIDFETLKTNKTDPTKVDVLLSACRTENIDSRVDALDAIDIDAKVVDVEGYALGRSAELIMAQLPPGAEEKSVALVDIGANMTTFAVVERGETIFTREQAFGGELFTQAILSTYGMSYDEAENAKIKGELPRNYTFEVLSPFQTQLLQQVKRTLQIYATASGKEKVDYIVLCGGTAKLEGMEALLLNELGINTVVANPFLGCLHGDELIKSQLQPNVNKYMVACGLALRSYAQWRI | not soluble
11 | MQVKSIKMRWESGGVNYCYLLSDSKNKKSWLIDPAEPPEVLPELTEDEKISVEAIVNTHHHYDHADGNADILKYLKEKNPTSKVEVIGGSKDCPKVTIIPENLKKLHLGDLEITCIRTPCHTRDSICYYVKDPTTDERCIFTGDTLFTAGCGRFFEGTGEEMDIALNNSILETVGRQNWSKTRVYPGHEYTSDNVKFVRKIYPQVGENKALDELEQFCSKHEVTAGRFTLKDEVEFNPFMRLEDPKVQKAAGDTNNSWDRAQIMDKLRAMKNRM | soluble
12 | MGSDKIHHHHHHMINQDIARIFTEIAYLLEAAGEQKSQFEANAYLKASRAISSMQEDLETIYEKGGKDALLSIPGIGKGIADKIVEYINSGSIQKYEDLKKKYPIDFISLMKIEGLGPKKLAVLYQALGITNVEELRNAILNHKVRGIPGFGEKSENQLLKNIEMAERVSERIPIWKAYPEALRIKNYLESTGYALIVEIAGSTRRMKETIGDIDILAASEYPNALMDKFVEMDGVSSIIAKGDKKSTVSLKIGTTCDLRIVSKESFGAAMQYFTGSKDHNIKLRRLAIGKGMKLNEYGLFSGDKNIVSGMPEEKVYETLDLAYIPPELREDRGEIEAAAQKRLPEIVQYGEVKGDMFSKMDVSNIKNITGISYVFVDSGDGPLTDLYMYTFDGGRAVKTGASIKALDCSKLNAVSELKSASGVIMLYNIDSLGLPESAAVQNLIEKLSKSGIIVLINSSDVRPTSDFLYSLRKYDFKVAIGSFSDEPSLEGSMRFGIGITRRAWIEKNRIINTLDANALMSYLKNSQ | not soluble
13 | MAHHHHHHMDAFRSLTIGTKFSAARNEEAAKLFRNAGKDKGSHGFPDAIGADGAVTLENASDMGSSSLSVPPPSATLNLFGRPTRSHADANAHLGVSAGSDAAAAANTASENKALKAITFKKKRNIWRRNDLQVTGTDLPAPIEHFSDLVRPPLNVPRNVVNNLFARQHKVPTPIQMQAISSLIHHRDVLACAPTGSGKTIAFLVPLFALLKAPDASCGVRALIVTPTAELAQQIEREAFFLMKGQRWKFVQHGQTTKKKDIFIATPGRILSLLEQKLLDLSNVQYLVFDEGDRLWDSRTDFLTVIDRILTACTRTDKVVSLFTATLSEKVEAAARSVMGADPVRIIVHGRRSANTHVKQRLVFCGNELGKVVAMRNLVREGITPPVLVFVQSVERSKELYEEIRMEGLHMAIMHAKMTVEQREETVLQFRLGKIWVLVTTELLARGIDFKNVGTVINFDFPATVDSYIHRVGRTGRAGKEGTAITFFTEDDKERLPPIAKVMQDSGNAVEDWILGIKVDRSTRRRLERTTPQRTIVSTRKRMLVAQQRVQRQYRRLEAEKAAKQASKRSKGCGDCDRDDGDDSTDDA | not soluble
14 | MQALYQLSATGAQQQNQQIPIGLSNSLLYQQLAAHQQIAAQQHQQQLAVSAAHQTQNNIMLATSAPSLINHMENSTDGKVKDDPNSDYDLQLSIQQQLAAAAQAAQMGQTQIGPQIVGQQGQPVVATTAGSTNGSAAVTQPDPSTSSGPDGPKRLHVSNIPFRFRDPDLKTMFEKFGVVSDVEIIFNERGSKGFGFVTMERPQDAERARQELHGSMIEGRKIEVNCATARVHSKKVKPTGGILDQMNPLMAQSALAAQAQMNRALLLRSPLVAQSLLGRGAALIPGMQQPAFQLQAALAGNPLAQLQGQPLLFNAAALQTNALQQSAFGMDPAAVQAALLANEQARFQLAAAAAQGNEYIMYHQAKQQELPGRIPSSGNASAFGEQYLSNALATASLPSYQMNPALRTLNRFTPY | not soluble
15 | MGSDKIHHHHHHMINAPKTCTCYNGCVGGPSRPAGHPRRRTDKPRWRWTFDSGRRTPSVRIRQLVRGTVPWESLEAVARELGARYDQDTVRVVFLDADNWLSTPCVVNDRWFVKVISEQNALVHAVFTGARNLGMFSSGTEGFFERFDGPVAMAEHERDATRDLRALGVNAPRPIEAFEVDGFGVLVLDYLPAFTPLDEVPAADVAAHAPAVFEALSTMHANGVAHGDLRAENVLVSDGDLYFIDATNVDTDAIADARAYDLACALAALEPLIDAQTVVRIARESYTVDEAAADVSTTMDALLRAQDFLGFVQLRPDHDFDTAALTGHIGMAATNAQRGL | not soluble
16 | HHDITKVDTSGASEITARQDKLTLQGVDASHKLAEHDLVRMNKYKELITRVGQKHGLDPAIIAGIISRESRAGSALDHGWGDHGKGFGLMQVDKRYHKIVGAWDSEKHISQGTEILIEFIRRIQAKFPVWPKEHQLKGGISAYNAGDKNVRTYERMDVGTTGGDYSNDVVARSQWFKSQGY | soluble
17 | MSLRSTAVLALLLCAGQVFALPVNSPMTKGDTKVMKCVLEVISDSLSKPSPMPVSPECLETLQGDERILSILRHQNLLKELQDLALQGAKERAQQQQEQQHSSFEDELSEVFENQSPDAKHRDAAAEVPSRDTMEKRKDSDKGQQDGFEATTEGPRPQAFPEPNEGHHHHHH | soluble
18 | MAHHHHHHMANIITLKSAWDVDRHIVLDSADKLVLIRFSSYTSAAVEAEEYSRQVKRGTATSTSTVAEGSSNSSSSALPTRKRRHDDADGNSACAVTSAATAALLSANVDEHYLRTRQMDALLSELAPKVRKYCTIYFVDTREVTAFNELYELGHDRDPFAVMFFYRNRHIRVDVGTGNNNKINFFAFEDLYDFLPIVDAAYKAGRQGRSIASCDRKFSTVALRR | soluble
